B1: AKT-interacting protein (Homo sapiens), Q9H8T0 (parent)
chain: MNPFWSMSTSSVRKRSEGEEKTLTGDVKTSPPRTAPKKQLPSIPKNALPITKPTSPAPAAQSTNGTHASYGPFYLEYSLLAEFTLVVKQKLPGVYVQPSYRSALMWFGVIFIRHGLYQDGVFKFTVYIPDNYPDGDCPRLVFDIPVFHPLVDPTSGELDVKRAFAKWRRNHNHIWQVLMYARRVFYKIDTASPLNPEAAVLYEKDIQLFKSKVVDSVKVCTARLFDQPKIEDPYAISFSPWNPSVHDEAREKMLTQKKPEEQHNKSVHVAGLSWVKPGSVQPFSKEEKTVAT
partner: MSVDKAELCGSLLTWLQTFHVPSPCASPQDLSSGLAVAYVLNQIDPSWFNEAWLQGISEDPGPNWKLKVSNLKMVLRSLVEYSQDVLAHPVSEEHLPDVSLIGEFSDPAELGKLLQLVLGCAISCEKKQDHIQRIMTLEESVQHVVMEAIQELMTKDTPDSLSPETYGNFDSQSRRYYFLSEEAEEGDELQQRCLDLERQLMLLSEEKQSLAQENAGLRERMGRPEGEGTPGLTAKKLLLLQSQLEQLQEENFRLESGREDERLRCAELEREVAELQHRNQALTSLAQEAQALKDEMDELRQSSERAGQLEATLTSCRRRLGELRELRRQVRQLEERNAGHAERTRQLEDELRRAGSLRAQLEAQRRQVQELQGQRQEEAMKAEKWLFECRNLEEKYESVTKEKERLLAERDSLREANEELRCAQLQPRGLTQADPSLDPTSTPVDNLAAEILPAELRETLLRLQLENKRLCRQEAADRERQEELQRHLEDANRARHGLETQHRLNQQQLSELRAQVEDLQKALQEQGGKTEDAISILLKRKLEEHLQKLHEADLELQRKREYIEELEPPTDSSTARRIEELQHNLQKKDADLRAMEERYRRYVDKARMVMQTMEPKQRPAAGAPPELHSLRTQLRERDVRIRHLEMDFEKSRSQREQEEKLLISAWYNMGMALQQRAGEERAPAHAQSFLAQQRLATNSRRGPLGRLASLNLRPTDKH
B2: AKT-interacting protein (Homo sapiens), Q9H8T0 (parent)
chain: B1 chain
partner: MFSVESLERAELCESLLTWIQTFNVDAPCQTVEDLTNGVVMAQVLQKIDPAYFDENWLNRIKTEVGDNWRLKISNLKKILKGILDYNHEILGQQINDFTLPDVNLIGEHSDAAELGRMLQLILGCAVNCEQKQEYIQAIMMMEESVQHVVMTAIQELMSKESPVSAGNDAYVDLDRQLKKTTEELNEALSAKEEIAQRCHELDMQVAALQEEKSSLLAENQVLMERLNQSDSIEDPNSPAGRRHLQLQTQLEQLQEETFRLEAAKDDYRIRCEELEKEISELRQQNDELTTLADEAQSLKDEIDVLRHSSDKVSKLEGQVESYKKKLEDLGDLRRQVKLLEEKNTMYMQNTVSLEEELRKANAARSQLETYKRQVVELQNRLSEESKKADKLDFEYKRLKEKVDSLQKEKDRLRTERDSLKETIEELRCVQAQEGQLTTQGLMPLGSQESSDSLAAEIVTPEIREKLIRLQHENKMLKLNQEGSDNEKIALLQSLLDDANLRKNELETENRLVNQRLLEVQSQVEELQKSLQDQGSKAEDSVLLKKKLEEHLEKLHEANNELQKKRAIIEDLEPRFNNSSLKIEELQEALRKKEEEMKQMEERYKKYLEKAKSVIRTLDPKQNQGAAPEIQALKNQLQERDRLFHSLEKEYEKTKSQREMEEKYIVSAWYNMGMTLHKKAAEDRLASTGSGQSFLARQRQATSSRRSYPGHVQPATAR
B3: AKT-interacting protein (Homo sapiens), Q9H8T0 (parent)
chain: B1 chain
partner: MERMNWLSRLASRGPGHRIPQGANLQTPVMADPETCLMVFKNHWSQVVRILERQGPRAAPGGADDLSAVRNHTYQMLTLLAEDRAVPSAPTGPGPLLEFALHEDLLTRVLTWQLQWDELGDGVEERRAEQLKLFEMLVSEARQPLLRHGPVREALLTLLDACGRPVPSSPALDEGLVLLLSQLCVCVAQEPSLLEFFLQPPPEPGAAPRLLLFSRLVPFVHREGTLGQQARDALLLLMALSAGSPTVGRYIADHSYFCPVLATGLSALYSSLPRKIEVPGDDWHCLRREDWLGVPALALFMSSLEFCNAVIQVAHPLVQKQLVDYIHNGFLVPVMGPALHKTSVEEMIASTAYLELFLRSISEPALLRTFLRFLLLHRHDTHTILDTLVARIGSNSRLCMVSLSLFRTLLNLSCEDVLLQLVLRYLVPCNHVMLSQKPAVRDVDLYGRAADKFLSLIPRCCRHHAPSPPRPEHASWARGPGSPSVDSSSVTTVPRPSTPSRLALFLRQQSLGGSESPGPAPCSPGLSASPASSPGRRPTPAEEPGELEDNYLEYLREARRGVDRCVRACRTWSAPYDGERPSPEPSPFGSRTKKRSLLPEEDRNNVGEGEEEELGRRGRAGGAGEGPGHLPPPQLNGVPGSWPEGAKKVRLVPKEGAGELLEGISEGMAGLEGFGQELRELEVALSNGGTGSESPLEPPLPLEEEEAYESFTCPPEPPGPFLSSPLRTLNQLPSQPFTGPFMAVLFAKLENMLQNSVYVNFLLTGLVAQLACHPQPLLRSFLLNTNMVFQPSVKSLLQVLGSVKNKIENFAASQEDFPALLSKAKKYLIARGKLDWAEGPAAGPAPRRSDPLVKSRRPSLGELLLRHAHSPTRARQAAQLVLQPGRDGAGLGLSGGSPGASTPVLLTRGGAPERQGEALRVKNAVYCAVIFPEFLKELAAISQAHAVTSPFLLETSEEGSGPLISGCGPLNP

Variants of: B1
Conditions: with hook2_human HOOK2, Q96ED9

Row | Variant | effect of a mutation on the interaction
1 | W106A;F107A | disrupting interaction strength

Variants of: B2
Conditions: with hook3_human HOOK3, Q86VS8

Row | Variant | effect of a mutation on the interaction
2 | W106A;F107A | decreasing interaction strength

Variants of: B3
Conditions: with FHIP1B

Row | Variant | effect of a mutation on the interaction
3 | W106A;F107A | disrupting interaction strength

— IntAct's records for PubMed 32073997
